According to paper PMC4475461:
Like-named read-outs stand apart in the source and are kept apart here.

T1: HLTF HIRAN domain (Homo sapiens, UniProt Q14527 55-180)
T1 sequence: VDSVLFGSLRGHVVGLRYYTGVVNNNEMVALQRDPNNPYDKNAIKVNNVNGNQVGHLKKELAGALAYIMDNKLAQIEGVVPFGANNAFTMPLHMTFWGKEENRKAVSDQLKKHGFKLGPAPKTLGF


Experiments:
HLTF HIRAN domain [1] = target: T1, HLTF HIRAN domain; test: NMR
HLTF HIRAN domain [2] = target: T1, HLTF HIRAN domain; test: NMR; remark: listed apart in the source

Row | Binder | binding result (HLTF HIRAN domain [1]) | binding result (HLTF HIRAN domain [2])
1 | TTTTTTTTTT (ssDNA) [dT10 (NMR)] | binds | –
2 | d(GCTGATAAAT) duplex (dsDNA) DNA 1: GCTGATAAAT DNA 2: ATTTATCAGC | – | no binding
3 | GCTGATAAAT (ssDNA) [d(GCTGATAAAT)] | – | binds
